Data reported in US9889181B2, “Bacteriophage lysin and antibiotic combinations against gram positive bacteria” (priority 2012, dated 2018).

Legend:
Lactobacillus spp. = assay: MIC, human gut bacteria; format: cell-based; details: N 6
[1] = test system: Streptococcus agalactiae, Group B; assay: MIC, broth microdilution (CLSI M07-A9); details: Group B (51)
Streptococcus mutans = assay: MIC, broth microdilution (CLSI M07-A9); details: Streptococcus mutans (12)
MRSA S. aureus strains = assay: Dual agent MIC assay (PlySs2 and daptomycin); format: cell-based, Staphylococcus aureus
VISA = assay: MIC, broth microdilution (CLSI M07-A9); design: MIC 50% / MIC 90% / MIC Range: unit not given beside the values
MSSA = assay: MIC, broth microdilution (CLSI M07-A9)
MRSA = assay: Murine bacteremia, PlySs2 dose-response and blood CFUs; format: in vivo, mice; details: for decrease in CFUs in blood: 5.25 mg/kg at 2-hours post-infection
[2] = test system: Staphylococcus lugdiensis; assay: MIC, broth microdilution (CLSI M07-A9); details: Staphylococcus lugdiensis (10)
Proteus mirabilis = assay: MIC, human gut bacteria; format: cell-based; details: N 2
Lactococcus spp. = assay: MIC, human gut bacteria; format: cell-based; details: N 3
Escherichia coli = assay: MIC, broth microdilution (CLSI M07-A9)
LRSA = assay: MIC, broth microdilution (CLSI M07-A9); design: MIC 50% / MIC 90% / MIC Range: unit not given beside the values
[3] = test system: MRSA strain MW2 and MSSA strain ATCC 29213; format: cell-based, Staphylococcus aureus; details: consistently across 1.25 to 15% surfactant
DRSA = assay: MIC, broth microdilution (CLSI M07-A9)
Enterococcus faecium = assay: MIC, broth microdilution (CLSI M07-A9); details: Enterococcus faecium (5)
MRSA strains = assay: Time kill assay, PlySs2 and antibiotic alone or in combination; format: cell-based, Staphylococcus aureus; details: ½ MIC of PlySs2 or ¼ MIC of vancomycin alone
[4] = test system: 20 different MSSA and 42 MRSA strains; assay: Time-kill assay, single agents at 1×MIC; format: cell-based, Staphylococcus aureus
Protocol: In order to more fully evaluate PlySs2's applicability to clinical Staphylococcal infections, time kill studies were undertaken against numerous Staphylococcus aureus strains, including methicillin resistant and methicillin sensitive strains. Time kill assays were performed according to CLSI methodology (CLSI document M07-A9 column 32 No. 2) on 42 methicillin resistant S. aureus (MRSA) strains and 20 methicillin sensitive S. aureus (MSSA) strains. Cultures of each strain (5.5×10^5-1×10^6 starting inoculum) were treated with PlySs2 lysin and with antibiotics daptomycin, oxacillin or vancomycin for comparison for 6 hours with aeration. MRSA and MSSA strains were treated with PlySs2, daptomycin and vancomycin. MSSA strains were also treated with oxacillin. 1×MIC concentrations of the different antibiotics were utilized, based on published and established antibiotic MIC values. PlySs2 lysin treatment was at approximately 1×MIC as previously determined (see TABLE 2 above). Culture aliquots were removed hourly up to 6 hours (time points taken at 15 and 30 min, 1 hr, 2 hr, 3 hr, 4 hr, 5 hr, and 6 hr) and added to a PBS/charcoal solution (to inactivate each drug), which was then serially diluted and plated for bacterial viability. The resulting log CFU/mL was plotted for each culture. Growth controls were included for each strain and represent bacterial growth in the absence of any antibacterial agent. Exemplary log kill curves for selected MRSA strains are depicted in FIG. 1. Exemplary log kill curves for selected MSSA strains are depicted in FIG. 2.
Rapid-kill kinetics are desirable in the clinical setting to treat patients with fulminant bacterial infections.

Enterococcus faecalis = assay: MIC, broth microdilution (CLSI M07-A9); details: Enterococcus faecalis (17)
[5] = test system: Staphylococcus epidermidis; assay: MIC, broth microdilution (CLSI M07-A9); details: Staphylococcus epidermidis (11)
[6] = test system: Streptococcus pyogenes, Group A; assay: MIC, broth microdilution (CLSI M07-A9); details: Group A (54)
Pseudomonas aeruginosa = assay: MIC, broth microdilution (CLSI M07-A9)
[7] = Vancomycin-intermediate (31) Staphylococcus aureus
[8] = Staphylcoccus aureus Methicillin susceptible (103)
[9] = Linezolid-resistant (5) Staphylococcus aureus

B1: PlySs2: bacteriophage lysin derived from Streptococcus suis, amino acid sequence of FIG. 29 (SEQ ID NO: 1) (protein, listed as Streptococcus suis)
chain: MTTVNEALNNVRAQVGSGVSVGNGECYALASWYERMISPDATVGLGAGVGWVSGAIGDTISAKNIGSSYNWQANGWTVSTSGPFKAGQIVTLGATPGNPYGHVVIVEAVDGDRLTILEQNYGGKRYPVRNYYSAASYRQQVVHYITPPGTVAQSAPNLAGSRSYRETGTMTVTVDALNVRRAPNTSGEIVAVYKRGESFDYDTVIIDVNGYVWVSYIGGSGKRNYVATGATKDGKRFGNAWGTFK
Lactobacillus spp.
  CF-301 MIC: >512 µg/mL
[1]
  MIC 50%: 8 µg/mL
  MIC 90%: 16 µg/mL
  MIC Range: 1 to 64 µg/mL
Streptococcus mutans
  MIC 50%: 64 µg/mL
  MIC 90%: 256 µg/mL
  MIC Range: 2 to 256 µg/mL
MRSA S. aureus strains; MRSA strain 223
  Fold reduction: 4 fold
MRSA S. aureus strains; MRSA strain 241
  Fold reduction: 2 fold
MRSA S. aureus strains; MRSA strain 263
  Fold reduction: 4 fold
MRSA S. aureus strains; MRSA strain 269 (MW2)
  Fold reduction: 4 fold
MRSA S. aureus strains; MRSA strain 270
  Fold reduction: 4 fold
MRSA S. aureus strains; MRSA strain 553
  Fold reduction: 2 fold
MRSA S. aureus strains; MRSA strain 650
  Fold reduction: 2 fold
MRSA S. aureus strains; MRSA strain 827
  Fold reduction: 2 fold
MRSA S. aureus strains; MRSA strain 828
  Fold reduction: 4 fold
MRSA S. aureus strains; MRSA strain 829
  Fold reduction: 2 fold
MRSA S. aureus strains; MRSA strain 830
  Fold reduction: 2 fold
MRSA S. aureus strains; MRSA strain 833
  Fold reduction: 4 fold
MRSA S. aureus strains; across 12 MRSA strains
  fold reduction in the effective MIC in PlySs2/daptomycin combination: 2-4 fold
VISA; VISA (n = 10)
  MIC90: 1.2 µM
VISA; [7]
  MIC 50%: 8
  MIC 90%: 32
  MIC Range: 1-64
MSSA; MSSA (n-28)
  MIC90: 0.15 µM
MSSA; [8]
  MIC 50%: 4 µg/mL
  MIC 90%: 8 µg/mL
  MIC Range: 1 to 16 µg/mL
MRSA; 5 mg/kg dose, data not shown
  protection: significant protection
MRSA; in 15 minutes
  decrease in CFUs in blood: 0.5 log10
MRSA; within the 60 minutes of treatment
  decrease in CFUs in blood: 2 log10
MRSA; data not shown
  lowest dose with survival enhancement over mock-injected control: 0.25 mg/kg
[2]
  MIC 50%: 8 µg/mL
  MIC 90%: 8 µg/mL
  MIC Range: 8 µg/mL
Proteus mirabilis
  CF-301 MIC: >512 µg/mL
Lactococcus spp.
  CF-301 MIC: >512 µg/mL
Escherichia coli; Escherichia coli (6)
  MIC 50%: >512 µg/mL
  MIC 90%: >512 µg/mL
  MIC Range: >512 µg/mL
Escherichia coli; Escherichia coli, N 10, human gut bacteria
  CF-301 MIC: >512 µg/mL
LRSA; LRSA (n = 5)
  MIC90: 0.08 µM
LRSA; [9]
  MIC 50%: 2
  MIC 90%: 2
  MIC Range: 2-4
[3]
  fold inhibition of MIC in the presence of Survanta: 8 fold
DRSA; DRSA (n = 8)
  MIC90: 0.15 µM
DRSA; Daptomycin-resistant (8) Staphylococcus aureus
  MIC Range: 2000 to 4000 µg/mL
Enterococcus faecium
  MIC 50%: >512 µg/mL
  MIC 90%: >512 µg/mL
MRSA strains
  effect alone at sub-MIC doses up to 6 hours: ineffective or poorly effective
[4]; 1×MIC
  time to reach bactericidal levels (≧3-log10 reduction in CFUs): ≤ 30 minutes
[4]; 1×MIC, up to 6 hours
  comparative kill: greater and faster than any antibiotic
[4]; all MRSA and MSSA strains tested, generally within the first hour of incubation
  maximal kill (log reduction): ≥ 3 log
Enterococcus faecalis
  MIC 50%: >512 µg/mL
  MIC 90%: >512 µg/mL
[5]
  MIC 50%: 128 µg/mL
  MIC 90%: 512 µg/mL
  MIC Range: 4 to 512 µg/mL
[6]
  MIC 50%: 2 µg/mL
  MIC 90%: 8 µg/mL
  MIC Range: 0.5 to 8 µg/mL
Pseudomonas aeruginosa; Pseudomonas aeruginosa (5)
  MIC 50%: >512 µg/mL
  MIC 90%: >512 µg/mL
  MIC Range: >512 µg/mL
Pseudomonas aeruginosa; Pseudomonas aeruginosa, N 11, human gut bacteria
  CF-301 MIC: >512 µg/mL
